What was measured:
[1] = target: T1, human TIM-3 full length, overexpressed on CHO-S cells (human, UniProt Q8TDQ0 22-301); assay: cell-based ELISA on fixed CHO-S cells overexpressing human TIM-3, HRP-labeled secondary antibody, OD450
T1 construct: cells fixed with 4% PFA on plates; also called HAVCR2; Tim-3-overexpressing CHO-S cells

[2] = target: T1, human TIM-3 full length, overexpressed …; assay: cell-based ELISA on fixed CHO-S cells overexpressing human TIM-3;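 further: antibody binding at serial dilutions to PFA-fixed cells for 1 h at 37 °C, read as TMB colour signal after acid stop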
Experimental: (§1) The binding activity of anti-TIM-3 antibody to CHO-S cells overexpressing human TIM-3 is detected via a binding assay. […] TIM-3-overexpressing cells were immobilized on a 96-well plate. After the addition of the antibody, signal strength was used to determine the binding activity of the antibody to Tim-3-overexpressing CHO-S cells.
(§2) The cells were inoculated on a 96-well plate with 4E5/ml density, 100 μg/well, and cultured overnight. Supernatant was discarded and the plate was washed three times with PBS. 100 μl/well of 4% PFA was added into each well, and the plate was fixed at room temperature for 30 minutes. The plate was washed three times with PBS. The liquid was discarded, and 200 μl of blocking solution (5% skim milk (Guangming skim milk powder) diluted with PBS) was added to each well. The plate was incubated at 37° C. for 2.5 h. Then the blocking solution was discarded, and the plate was washed 5 times with PBST buffer (pH 7.4 PBS containing 0.05% Tween-20). 50 μl/well of various concentrations of antibodies to be tested (antibody via hybridoma purification or humanized antibody), diluted with sample buffer, were added into each well, and incubated at 37° C. for 1 h. […] The plate was washed 6 times with PBST, and 100 μl/well TMB chromogenic substrates (KPL, Cat, No., 52-00-03) was added to each well. The plate was incubated at room temperature for 5-15 min. Reaction was stopped by the addition of 50 μl of 1 M H₂SO₄ to each well.

[3] = target: T2, Extracellular domain of TIM-3 with Flag and His tag (human); assay: Biacore SPR; antibody captured by anti-human capture antibody on CM5, TIM-3-Flag-His in mobile phase
T2 construct: also called TIM-3-Flag-His
Text: The reaction signal was detected in real-time using Biacore instrument to obtain the association and dissociation curves. […] In the experiment, after each cycle of dissociation was finished, the biosensor chip was washed with the regenerative solution in the human capture antibody Kit.

[4] = target: T1, human TIM-3 full length, overexpressed …; assay: cell-based ELISA on CHO-S cells overexpressing human TIM-3
Experimental: as §1, §2

[5] = target: T2, Extracellular domain of TIM-3 with Flag …; assay: Biacore SPR; antibody as stationary phase, 'TIM-3-His' as mobile phase

Row | Binder | EC50 (read off the curve) [1] [nM] | EC50 [2] [nM] | Kd [3] [nM] | EC50 [4] [nM] | Kd [5] [nM]
1 | ABTim-3 (antibody, V domains shown) VH: QVQLQQPGAELVKPGASVKMSCKASGYTFTSYNMHWIKQTPGQGLEWIGDIYPGNGDTSYNQKFKGKATLTADKSSSTVYMQLSSLTSEDSAVYYCARVGGAFPMDYWGQGTSVTVSS VL: DIVLTQSPASLAVSLGQRATISCRASESVEYYGTSLMQWYQQKPGQPPKLLIYAASNVESGVPARFSGSGSGTDFSLNIHPVEEDDIAIYFCQQSRKDPSTFGGGTKLEIK | ~0.2 |  |  |  | 
2 | h1701-009 (antibody, human IgG4 S228P, kappa, V domains shown, Humanized IgG4 (S228P)/kappa) VH: QVQLVQSGAEVKKPGASVKVSCKASGYTFTDYYMNWVRQAPGQGLEWMGDIIPNNGGSKYNQKFKDRVTMTTDTSTSTAYMELRSLRSDDTAVYYCATWGYGSSYRWFDYWGQGTLVTVSS VL: DIQMTQSPSSLSASVGDRVTITCLASQPIGIWLAWYQQKPGKAPKLLIYAATSLADGVPSRFSGSGSGTDFTFTISSLQPEDIATYYCQQLYSSPWTFGGGTKVEIKR |  | 0.187 | 1.34 | 0.503 | 0.599

The remaining lines, values ahead:

Row | EC50 (read off the curve) [1] [nM] | EC50 [2] [nM] | Kd [3] [nM] | EC50 [4] [nM] | Kd [5] [nM] | Binder
3 |  | 0.077 | 2.48 |  |  | h1799-010 (antibody, human IgG4 S228P, kappa, Humanized IgG4 (S228P)/kappa) heavy: not shown light: DIQMTQSPSSLSASVGDRVTITCRASDNIYSYLAWYQQKPGKAPKLLIYNAKTLAEGVPSRFSGSGSGTDFTLTISSLQPEDFATYYCQQHYGSPLTFGQGTKLEIKRTVAAPSVFIFPPSDEQLKSGTASVVCLLNNFYPREAKVQWKVDNALQSGNSQESVTEQDSKDSTYSLSSTLTLSKADYEKHKVYACEVTHQGLSSPVTKSFNRGEC
4 |  | 0.095 | 1.89 |  |  | h1799-006 (antibody, human IgG4 S228P, kappa, Humanized IgG4 (S228P)/kappa) heavy: not shown light: DIQMTQSPSSLSASVGDRVTITCRASDNIYSYLAWYQQKPGKAPKLLVYNAKTLAEGVPSRFSGSGSGTDFTLTISSLQPEDFATYYCQQHYGSPLTFGQGTKLEIKRTVAAPSVFIFPPSDEQLKSGTASVVCLLNNFYPREAKVQWKVDNALQSGNSQESVTEQDSKDSTYSLSSTLTLSKADYEKHKVYACEVTHQGLSSPVTKSFNRGEC

— patent US20190375839A1 (JIANGSU HENGRUI MEDICINE, published 2019)
